Here are results for 1 protein from ChEMBL document CHEMBL4052696, “Varic acid analogues from fungus as PTP1B inhibitors: Biological evaluation and structure-activity relationships” (Bioorg Med Chem Lett, 2017).

Conditions in all cases: Homo sapiens
Compound in data set [1]: CCCc1cc(OC(=O)c2c(O)cc(OC(=O)c3c(O)cc(O)cc3CCC)cc2CCC)cc(O)c1C(=O)O
Nature of the data set: Competitive inhibition of PTP1B (unknown origin) assessed as Km(app) for substrate at 0.1 uM using p-nitrophenyl phosphate substrate incubated for 30 mins by Lineweaver-Burk double reciprocal plot (reference value: 1.43 mM).

Compound in data set [2]: CCCc1cc(OC(=O)c2c(O)cc(OC(=O)c3c(O)cc(O)cc3CCC)cc2CCC)cc(O)c1C(=O)O
Nature of the data set: Competitive inhibition of PTP1B (unknown origin) assessed as Km(app) for substrate at 0.4 uM using p-nitrophenyl phosphate substrate incubated for 30 mins by Lineweaver-Burk double reciprocal plot (reference value: 1.43 mM).

Compound in data set [3]: CCCc1cc(OC(=O)c2c(O)cc(OC(=O)c3c(O)cc(O)cc3CCC)cc2CCC)cc(O)c1C(=O)O
Nature of the data set: Competitive inhibition of PTP1B (unknown origin) assessed as Km(app) for substrate at 0.25 uM using p-nitrophenyl phosphate substrate incubated for 30 mins by Lineweaver-Burk double reciprocal plot (reference value: 1.43 mM).

B1: Tyrosine-protein phosphatase non-receptor type 1 (Homo sapiens), P18031 (protein)
chain: MEMEKEFEQIDKSGSWAAIYQDIRHEASDFPCRVAKLPKNKNRNRYRDVSPFDHSRIKLHQEDNDYINASLIKMEEAQRSYILTQGPLPNTCGHFWEMVWEQKSRGVVMLNRVMEKGSLKCAQYWPQKEEKEMIFEDTNLKLTLISEDIKSYYTVRQLELENLTTQETREILHFHYTTWPDFGVPESPASFLNFLFKVRESGSLSPEHGPVVVHCSAGIGRSGTFCLADTCLLLMDKRKDPSSVDIKKVLLEMRKFRMGLIQTADQLRFSYLAVIEGAKFIMGDSSVQDQWKELSHEDLEPPPEHIPPPPRPPKRILEPHNGKCREFFPNHQWVKEETQEDKDCPIKEEKGSPLNAAPYGIESMSQDTEVRSRVVGGSLRGAQAASPAKGEPSLPEKDEDHALSYWKPFLVNMCVATVLTAGAYLCYRFLFNSNT
Consider B1, for which the Km in data set [1] amounted to 12 mM; in data set [2], 91 mM; in data set [3], 44 mM.
